Reference: US20140213513A1 (Sanofi, priority 2012, published 2014)
*1 amine or outer side, *2 acyl side, *3 side chain or, on linkers, in order; H or OH if unused. Where no end group is shown, it is not given here. Side-chain parts run from the residue outwards. [ ]: non-standard residue; d: D form. The star is where a group is joined. γGlu = O=C(O)[C@H](CCC(=O)[*:2])N[*:1]; Stearoyl = CCCCCCCCCCCCCCCCCC(=O)*; Palmitoyl = CCCCCCCCCCCCCCCC(=O)*; Aib = CC(C)(N)C(=O)O

T1: human GIP receptor (human, UniProt P48546 22-466)
T1 sequence (looked up): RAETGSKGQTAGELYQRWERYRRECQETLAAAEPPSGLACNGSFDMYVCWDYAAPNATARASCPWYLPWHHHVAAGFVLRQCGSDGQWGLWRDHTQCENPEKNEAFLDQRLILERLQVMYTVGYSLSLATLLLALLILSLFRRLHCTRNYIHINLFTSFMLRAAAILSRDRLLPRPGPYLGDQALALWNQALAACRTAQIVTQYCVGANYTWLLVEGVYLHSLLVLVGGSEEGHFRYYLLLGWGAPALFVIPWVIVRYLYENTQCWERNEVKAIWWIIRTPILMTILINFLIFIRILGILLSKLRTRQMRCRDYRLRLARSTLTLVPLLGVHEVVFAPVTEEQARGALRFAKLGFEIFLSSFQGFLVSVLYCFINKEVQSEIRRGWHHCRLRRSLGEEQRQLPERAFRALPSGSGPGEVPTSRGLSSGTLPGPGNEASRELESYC


How the values were obtained:
Experiment in all cases: cell-based or functional assay
[1] = molecular target: human GLP-1 receptor (human, UniProt P43220 24-463)
[2] = molecular target: T1, human GIP receptor
[3] = molecular target: human glucagon receptor (human, UniProt P47871 26-477)
human glucagon receptor, sequence (P47871 26-477): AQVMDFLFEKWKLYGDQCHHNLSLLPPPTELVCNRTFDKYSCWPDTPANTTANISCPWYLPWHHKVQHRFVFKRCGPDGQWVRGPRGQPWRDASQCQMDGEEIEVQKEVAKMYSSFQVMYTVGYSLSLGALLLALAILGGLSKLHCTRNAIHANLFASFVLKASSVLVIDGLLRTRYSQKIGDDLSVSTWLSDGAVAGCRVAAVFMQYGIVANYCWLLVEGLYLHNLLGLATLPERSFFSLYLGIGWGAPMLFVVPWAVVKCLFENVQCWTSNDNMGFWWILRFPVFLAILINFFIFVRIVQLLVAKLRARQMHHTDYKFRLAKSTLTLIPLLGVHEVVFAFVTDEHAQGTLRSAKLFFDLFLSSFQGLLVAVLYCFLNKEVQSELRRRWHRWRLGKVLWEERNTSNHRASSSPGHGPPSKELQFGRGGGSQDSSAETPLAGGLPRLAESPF

| Binder | EC50 hGLP-1 R [1] [nM] | EC50 hGIP R [2] [nM] | EC50 hGLUC R [3] [nM] |
| --- | --- | --- | --- |
| Y[Aib]EGTFTSDLSIQK([γGlu-Stearoyl])ESKAA[Aib]EFIEWLKAGGPSSGAPPPS-NH2 (N-terminus assumed; SMILES CCCCCCCCCCCCCCCCCC(=O)N[C@@H](CCC(=O)NCCCC[C@H](NC(=O)[C@H](CCC(N)=O)NC(=O)[C@@H](NC(=O)[C@H](CO)NC(=O)[C@H](CC(C)C)NC(=O)[C@H](CC(=O)O)NC(=O)[C@H](CO)NC(=O)[C@@H](NC(=O)[C@H](Cc1ccccc1)NC(=O)[C@@H](NC(=O)CNC(=O)[C@H](CCC(=O)O)NC(=O)C(C)(C)NC(=O)[C@@H](N)Cc1ccc(O)cc1)[C@@H](C)O)[C@@H](C)O)[C@@H](C)CC)C(=O)N[C@@H](CCC(=O)O)C(=O)N[C@@H](CO)C(=O)N[C@@H](CCCCN)C(=O)N[C@@H](C)C(=O)N[C@@H](C)C(=O)NC(C)(C)C(=O)N[C@@H](CCC(=O)O)C(=O)N[C@@H](Cc1ccccc1)C(=O)N[C@H](C(=O)N[C@@H](CCC(=O)O)C(=O)N[C@@H](Cc1c[nH]c2ccccc12)C(=O)N[C@@H](CC(C)C)C(=O)N[C@@H](CCCCN)C(=O)N[C@@H](C)C(=O)NCC(=O)NCC(=O)N1CCC[C@H]1C(=O)N[C@@H](CO)C(=O)N[C@@H](CO)C(=O)NCC(=O)N[C@@H](C)C(=O)N1CCC[C@H]1C(=O)N1CCC[C@H]1C(=O)N1CCC[C@H]1C(=O)N[C@@H](CO)C(N)=O)[C@@H](C)CC)C(=O)O) [exendin-4 peptide analogue SEQ ID NO: 29] | 0.0072 | 0.013 | 15 |
| Y[Aib]QGTFTSDLSIQK([γGlu-Stearoyl])DEQRAKEFIEWLKAGGPSSGAPPPS-NH2 (N-terminus assumed; SMILES CCCCCCCCCCCCCCCCCC(=O)N[C@@H](CCC(=O)NCCCC[C@H](NC(=O)[C@H](CCC(N)=O)NC(=O)[C@@H](NC(=O)[C@H](CO)NC(=O)[C@H](CC(C)C)NC(=O)[C@H](CC(=O)O)NC(=O)[C@H](CO)NC(=O)[C@@H](NC(=O)[C@H](Cc1ccccc1)NC(=O)[C@@H](NC(=O)CNC(=O)[C@H](CCC(N)=O)NC(=O)C(C)(C)NC(=O)[C@@H](N)Cc1ccc(O)cc1)[C@@H](C)O)[C@@H](C)O)[C@@H](C)CC)C(=O)N[C@@H](CC(=O)O)C(=O)N[C@@H](CCC(=O)O)C(=O)N[C@@H](CCC(N)=O)C(=O)N[C@@H](CCCNC(=N)N)C(=O)N[C@@H](C)C(=O)N[C@@H](CCCCN)C(=O)N[C@@H](CCC(=O)O)C(=O)N[C@@H](Cc1ccccc1)C(=O)N[C@H](C(=O)N[C@@H](CCC(=O)O)C(=O)N[C@@H](Cc1c[nH]c2ccccc12)C(=O)N[C@@H](CC(C)C)C(=O)N[C@@H](CCCCN)C(=O)N[C@@H](C)C(=O)NCC(=O)NCC(=O)N1CCC[C@H]1C(=O)N[C@@H](CO)C(=O)N[C@@H](CO)C(=O)NCC(=O)N[C@@H](C)C(=O)N1CCC[C@H]1C(=O)N1CCC[C@H]1C(=O)N1CCC[C@H]1C(=O)N[C@@H](CO)C(N)=O)[C@@H](C)CC)C(=O)O) [exendin-4 peptide analogue SEQ ID NO: 31] | 0.0148 | 0.0131 | 0.0041 |
| Y[Aib]HGTFTSDLSIQK([γGlu-Stearoyl])EKRAAFEFIEWLKNTGPSSGAPPPS-NH2 (N-terminus assumed; SMILES CCCCCCCCCCCCCCCCCC(=O)N[C@@H](CCC(=O)NCCCC[C@H](NC(=O)[C@H](CCC(N)=O)NC(=O)[C@@H](NC(=O)[C@H](CO)NC(=O)[C@H](CC(C)C)NC(=O)[C@H](CC(=O)O)NC(=O)[C@H](CO)NC(=O)[C@@H](NC(=O)[C@H](Cc1ccccc1)NC(=O)[C@@H](NC(=O)CNC(=O)[C@H](Cc1c[nH]cn1)NC(=O)C(C)(C)NC(=O)[C@@H](N)Cc1ccc(O)cc1)[C@@H](C)O)[C@@H](C)O)[C@@H](C)CC)C(=O)N[C@@H](CCC(=O)O)C(=O)N[C@@H](CCCCN)C(=O)N[C@@H](CCCNC(=N)N)C(=O)N[C@@H](C)C(=O)N[C@@H](C)C(=O)N[C@@H](Cc1ccccc1)C(=O)N[C@@H](CCC(=O)O)C(=O)N[C@@H](Cc1ccccc1)C(=O)N[C@H](C(=O)N[C@@H](CCC(=O)O)C(=O)N[C@@H](Cc1c[nH]c2ccccc12)C(=O)N[C@@H](CC(C)C)C(=O)N[C@@H](CCCCN)C(=O)N[C@@H](CC(N)=O)C(=O)N[C@H](C(=O)NCC(=O)N1CCC[C@H]1C(=O)N[C@@H](CO)C(=O)N[C@@H](CO)C(=O)NCC(=O)N[C@@H](C)C(=O)N1CCC[C@H]1C(=O)N1CCC[C@H]1C(=O)N1CCC[C@H]1C(=O)N[C@@H](CO)C(N)=O)[C@@H](C)O)[C@@H](C)CC)C(=O)O) [exendin-4 peptide analogue SEQ ID NO: 32] | 0.0417 | 0.0335 | 0.0192 |
| Y[Aib]EGTFTSDLSKQK([γGlu-Palmitoyl])DKRAAQDFIEWLKNGGPSSGAPPPS-NH2 (N-terminus assumed; SMILES CCCCCCCCCCCCCCCC(=O)N[C@@H](CCC(=O)NCCCC[C@H](NC(=O)[C@H](CCC(N)=O)NC(=O)[C@H](CCCCN)NC(=O)[C@H](CO)NC(=O)[C@H](CC(C)C)NC(=O)[C@H](CC(=O)O)NC(=O)[C@H](CO)NC(=O)[C@@H](NC(=O)[C@H](Cc1ccccc1)NC(=O)[C@@H](NC(=O)CNC(=O)[C@H](CCC(=O)O)NC(=O)C(C)(C)NC(=O)[C@@H](N)Cc1ccc(O)cc1)[C@@H](C)O)[C@@H](C)O)C(=O)N[C@@H](CC(=O)O)C(=O)N[C@@H](CCCCN)C(=O)N[C@@H](CCCNC(=N)N)C(=O)N[C@@H](C)C(=O)N[C@@H](C)C(=O)N[C@@H](CCC(N)=O)C(=O)N[C@@H](CC(=O)O)C(=O)N[C@@H](Cc1ccccc1)C(=O)N[C@H](C(=O)N[C@@H](CCC(=O)O)C(=O)N[C@@H](Cc1c[nH]c2ccccc12)C(=O)N[C@@H](CC(C)C)C(=O)N[C@@H](CCCCN)C(=O)N[C@@H](CC(N)=O)C(=O)NCC(=O)NCC(=O)N1CCC[C@H]1C(=O)N[C@@H](CO)C(=O)N[C@@H](CO)C(=O)NCC(=O)N[C@@H](C)C(=O)N1CCC[C@H]1C(=O)N1CCC[C@H]1C(=O)N1CCC[C@H]1C(=O)N[C@@H](CO)C(N)=O)[C@@H](C)CC)C(=O)O) [exendin-4 peptide analogue SEQ ID NO: 30] | 0.005 | 0.0163 | 1.45 |
| Y[Aib]QGTFTSDLSIQK([γGlu-Palmitoyl])DERAAKDFIEWLKAGGPSSGAPPPS-NH2 (N-terminus assumed; SMILES CCCCCCCCCCCCCCCC(=O)N[C@@H](CCC(=O)NCCCC[C@H](NC(=O)[C@H](CCC(N)=O)NC(=O)[C@@H](NC(=O)[C@H](CO)NC(=O)[C@H](CC(C)C)NC(=O)[C@H](CC(=O)O)NC(=O)[C@H](CO)NC(=O)[C@@H](NC(=O)[C@H](Cc1ccccc1)NC(=O)[C@@H](NC(=O)CNC(=O)[C@H](CCC(N)=O)NC(=O)C(C)(C)NC(=O)[C@@H](N)Cc1ccc(O)cc1)[C@@H](C)O)[C@@H](C)O)[C@@H](C)CC)C(=O)N[C@@H](CC(=O)O)C(=O)N[C@@H](CCC(=O)O)C(=O)N[C@@H](CCCNC(=N)N)C(=O)N[C@@H](C)C(=O)N[C@@H](C)C(=O)N[C@@H](CCCCN)C(=O)N[C@@H](CC(=O)O)C(=O)N[C@@H](Cc1ccccc1)C(=O)N[C@H](C(=O)N[C@@H](CCC(=O)O)C(=O)N[C@@H](Cc1c[nH]c2ccccc12)C(=O)N[C@@H](CC(C)C)C(=O)N[C@@H](CCCCN)C(=O)N[C@@H](C)C(=O)NCC(=O)NCC(=O)N1CCC[C@H]1C(=O)N[C@@H](CO)C(=O)N[C@@H](CO)C(=O)NCC(=O)N[C@@H](C)C(=O)N1CCC[C@H]1C(=O)N1CCC[C@H]1C(=O)N1CCC[C@H]1C(=O)N[C@@H](CO)C(N)=O)[C@@H](C)CC)C(=O)O) [exendin-4 peptide analogue SEQ ID NO: 35] | 0.0035 | 0.0182 | 0.123 |
| Y[Aib]QGTFTSDLSIQK([γGlu-Palmitoyl])DSRAAQDFIEWLKRGGPSSGAPPPS-NH2 (N-terminus assumed; SMILES CCCCCCCCCCCCCCCC(=O)N[C@@H](CCC(=O)NCCCC[C@H](NC(=O)[C@H](CCC(N)=O)NC(=O)[C@@H](NC(=O)[C@H](CO)NC(=O)[C@H](CC(C)C)NC(=O)[C@H](CC(=O)O)NC(=O)[C@H](CO)NC(=O)[C@@H](NC(=O)[C@H](Cc1ccccc1)NC(=O)[C@@H](NC(=O)CNC(=O)[C@H](CCC(N)=O)NC(=O)C(C)(C)NC(=O)[C@@H](N)Cc1ccc(O)cc1)[C@@H](C)O)[C@@H](C)O)[C@@H](C)CC)C(=O)N[C@@H](CC(=O)O)C(=O)N[C@@H](CO)C(=O)N[C@@H](CCCNC(=N)N)C(=O)N[C@@H](C)C(=O)N[C@@H](C)C(=O)N[C@@H](CCC(N)=O)C(=O)N[C@@H](CC(=O)O)C(=O)N[C@@H](Cc1ccccc1)C(=O)N[C@H](C(=O)N[C@@H](CCC(=O)O)C(=O)N[C@@H](Cc1c[nH]c2ccccc12)C(=O)N[C@@H](CC(C)C)C(=O)N[C@@H](CCCCN)C(=O)N[C@@H](CCCNC(=N)N)C(=O)NCC(=O)NCC(=O)N1CCC[C@H]1C(=O)N[C@@H](CO)C(=O)N[C@@H](CO)C(=O)NCC(=O)N[C@@H](C)C(=O)N1CCC[C@H]1C(=O)N1CCC[C@H]1C(=O)N1CCC[C@H]1C(=O)N[C@@H](CO)C(N)=O)[C@@H](C)CC)C(=O)O) [exendin-4 peptide analogue SEQ ID NO: 34] | 0.0074 | 0.0513 | 0.222 |
